From US20250009801A1 (Innovent, published 2025)

Columns and labels:
[1] = target: HB37A6 PG Ab (P329G mutated HB37A6 antibody, human IgG1); assay: cell-based or functional assay
[2] = target: T1, human Claudin18.2-His (Acro, CL2-H5546) (human, UniProt P56856-2 1-261); assay: SPR (Biacore T200), Claudin18.2-His coupled on CM5 chip, antibody in the mobile phase (avidity)
T1 construct: Bought reagent, amine-coupled to a CM5 chip; also called recombinant human CLDN18.2 protein; not shown: His tag

HB37A6 PG Ab (P329G mutated HB37A6 antibody, human IgG1), sequence (heavy, as listed by the source, chain 1 of 2): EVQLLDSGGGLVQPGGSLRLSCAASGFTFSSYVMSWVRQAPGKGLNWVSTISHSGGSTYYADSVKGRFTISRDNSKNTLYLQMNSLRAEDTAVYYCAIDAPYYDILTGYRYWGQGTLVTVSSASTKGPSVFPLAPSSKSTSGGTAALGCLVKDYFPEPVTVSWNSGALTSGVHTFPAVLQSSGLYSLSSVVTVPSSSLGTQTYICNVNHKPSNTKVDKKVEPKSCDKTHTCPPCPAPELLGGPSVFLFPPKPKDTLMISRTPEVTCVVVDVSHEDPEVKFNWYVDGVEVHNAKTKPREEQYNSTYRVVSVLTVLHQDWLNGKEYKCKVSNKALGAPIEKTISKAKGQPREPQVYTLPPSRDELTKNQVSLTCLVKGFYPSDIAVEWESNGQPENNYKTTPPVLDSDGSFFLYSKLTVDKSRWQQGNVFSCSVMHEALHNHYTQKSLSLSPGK
HB37A6 PG Ab (P329G mutated HB37A6 antibody, human IgG1), sequence (light, as listed by the source, chain 2 of 2): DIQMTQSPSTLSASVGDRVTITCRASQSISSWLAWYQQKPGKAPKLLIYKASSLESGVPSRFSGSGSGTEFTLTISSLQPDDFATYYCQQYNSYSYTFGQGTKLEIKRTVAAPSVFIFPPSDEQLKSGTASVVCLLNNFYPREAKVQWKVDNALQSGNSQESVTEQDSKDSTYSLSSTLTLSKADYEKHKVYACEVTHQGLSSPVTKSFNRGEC

B1: HuR968B CAR on CAR-T cells (receptor)
chain: EVQLVESGGGLVQPGGSLRLSCAASGFTFSRYWMNWVRQAPGKGLEWVGEITPDSSTINYAPSLKGRFTISRDNAKNSLYLQMNSLRAEDTAVYYCARPYDYGAWFASWGQGTLVTVSSGGGGSGGGGSGGGGSGGGGSQAVVTQEPSLTVSPGGTVTLTCRSSTGAVTTSNYANWVQEKPDHLFTGLIGGTNKRAPGTPARFSGSLLGGKAALTLSGAQPEDEAEYYCALWYSNHWVFGGGTKLTVLGGGGSIYIWAPLAGTCGVLLLSLVITLYCKRGRKKLLYIFKQPFMRPVQTTQEEDGCSCRFPEEEEGGCELRVKFSRSADAPAYQQGQNQLYNELNLGRREEYDVLDKRRGRDPEMGGKPRRKNPQEGLYNELQKDKMAEAYSEIGMKGERRRGKGHDGLYQGLSTATKDTYDALHMQALPPR
- proliferation of CAR-T cells on plate-bound antibody (CellTiter-Glo), 2 days, against the WT antibody [1]: ~2 fold
- proliferation of CAR-T cells on plate-bound antibody (CellTiter-Glo), 3 days, against the WT antibody [1]: ~3.3 fold

B2: Hz3G3 PG Ab (antibody, human IgG1, kappa, V domains shown)
VH: QVQLVQSGAEVKKPGASVKVSCKASGYSFTTYWMHWVRQAPGQGLEWMGLIDPSDSETRLNQKFKDRVTMTVDTSTSTVYMELSSLRSEDTAVYYCASNRWLLGWGQGTLVTVSS
VL: DIVMTQSPDSLAVSLGERATINCKSSQSLLNSGNQKNYLTWYQQKPGQPPKLLIYWASTRESGVPDRFSGSGSGTDFTLTISSLQAEDVAVYYCQNDYSYPLTFGQGTKLEIKR
notes: also called G3 PG antibody; G3 antibody
- Kd [2]: 2.5 nM
- koff [2]: 0.00177 s⁻¹
- kon [2]: 709000 M⁻¹ s⁻¹

B3: Hz69H9 PG Ab (P329G mutated Hz69H9 antibody, human IgG1) (antibody, V domains shown)
VH: QVQLVQSGAEVKKPGSSVKVSCKASGYSFSSYNIHWVRQAPGQGLEWMGYIAPFQGDSRYNQKFKGRVTITADKSTSTAYMELSSLRSEDTAVYYCARLNRGNSLDYWGQGTLVTVSS
VL: DIVMTQSPDSLAVSLGERATINCKSSQSLFNSGNQRNYLTWYQQKPGQPPKLLIYWASTRESGVPDRFSGSGSGTDFTLTISSLQAEDVAVYYCQNNYIYPLTFGGGTKVEIKR
notes: also called H9 PG antibody; P329G H9 antibody
- Kd [2]: < 0.00527 nM
- koff [2]: < 1e-05 s⁻¹
- kon [2]: 1.9e+06 M⁻¹ s⁻¹

B4: Hz69H9-1.2 PG Ab (antibody, human IgG1, kappa, V domains shown)
VH: QVQLVQSGAEVKKPGSSVKVSCKASGYSFSSYNIHWVRQAPGQGLEWMGYIAPFQGDARYNQKFKGRVTITADKSTSTAYMELSSLRSEDTAVYYCARLNRGQSLDYWGQGTLVTVSS
VL: DIVMTQSPDSLAVSLGERATINCKSSQSLFNAGNQRNYLTWYQQKPGQPPKLLIYWASTRESGVPDRFSGSGSGTDFTLTISSLQAEDVAVYYCQNNYIYPLTFGGGTKVEIKR
notes: Mutant of the parent Hz69H9 with point mutations in VH or VL; also called H9-1.2 PG antibody
- Kd [2]: 0.98 nM
- koff [2]: 0.00185 s⁻¹
- kon [2]: 1.89e+06 M⁻¹ s⁻¹

B5: Hz69H9-SA PG Ab (antibody, human IgG1, kappa, V domains shown)
VH: QVQLVQSGAEVKKPGSSVKVSCKASGYSFSSYNISWVRQAPGQGLEWMGYIAPFQGDARYNQKFKGRVTITADKSTSTAYMELSSLRSEDTAVYYCARLNRGNSLDYWGQGTLVTVSS
VL: DIVMTQSPDSLAVSLGERATINCKSSQSLFNSGNQRNYLTWYQQKPGQPPKLLIYWASTRESGVPDRFSGSGSGTDFTLTISSLQAEDVAVYYCQNNYIYPLTFGGGTKVEIKR
notes: Mutant of the parent Hz69H9 with point mutations in VH or VL; also called H9-SA PG antibody
- Kd [2]: 0.325 nM
- koff [2]: 0.000153 s⁻¹
- kon [2]: 471000 M⁻¹ s⁻¹
